The results in this text go back to PMC4788688, “Chemical shift assignment of the alternative scaffold protein IscA” (Biomolecular Nmr Assignments, 2016).

This data set deals with the molecule itself. Nature of the data set: SEC; purified IscA in 20 mM Tris-HCl with 20 mM DTT or 5 mM TCEP; chromatograms showed no significant differences at 50, 150 or 1000 mM NaCl; self-association into dimers and higher species. On the technique in general: In gel filtration, larger molecules generally elute earlier.

B1: E. coli IscA protein (cluster-free) (natural protein)
chain: MSITLSDSAAARVNTFLANRGKGFGLRLGVRTSGCSGMAYVLEFVDEPTPEDIVFEDKGVKVVVDGKSLQFLDGTQLDFVKEGLNEGFKFTNPNVKDECGCGESFHV
notes: IscA of E. coli, recombinant, printed length 107 residues (11.5 kDa); cluster-free; 15N- or 13C/15N-labelled for NMR; also called alternative scaffold protein IscA; source: E. coli BL21 (DE3), pETM30 vector, purified (DEAE and Q anion exchange, Superdex 75 size exclusion)
Consider B1, for which the binding result is recorded as “binds”.
